Assay results reported in patent US9493781B2, “Synthetic brassica-derived chloroplast transit peptides” (DOW AGROSCIENCES LLC, priority 2012, dated 2016).

Tests used:
Arabidopsis [1] = assay: dgt-28, dgt-32, dgt-33, dgt-3, dgt-7 transformed Arabidopsis (T1, T2, T3) response to postemergence glyphosate, % visual injury; format: in vivo, Arabidopsis thaliana; settings: for % Injury Ave / % Injury Range (%) / No. plants with 20-40% injury / No. plants with <20% injury / No. plants with >40% injury: 14 days after application
Description: Transgenic T1 Arabidopsis plants containing the dgt-28 transgene were sprayed with differing rates of glyphosate. Elevated rates were applied in this study to determine the relative levels of resistance (105, 420, 1,680 or 3,360 g ae/ha). A typical 1× usage rate of glyphosate that will control non-transformed Arabidopsis is 420 g ae/ha. […] The T1 Arabidopsis plants that were used in this study were variable copy number for the dgt-28 transgene. The low copy dgt-28 T1 Arabidopsis plants were self-pollinated and used to produce T2 plants.
Results of Glyphosate Selection of Transformed dgt-28 Arabidopsis Plants. The Arabidopsis T1 transformants were first selected from the background of untransformed seed using a glufosinate selection scheme. Three flats or 30,000 seed were analyzed for each T1 construct. The T1 plants selected above were molecularly characterized and representative plants with variable copy number were subsequently transplanted to individual pots and sprayed with various rates of commercial glyphosate as previously described. The response of these plants is presented in terms of % visual injury 2 weeks after treatment (WAT). […] An arithmetic mean and standard deviation is presented for each construct used for Arabidopsis transformation. The range in individual response is also indicated in the last column for each rate and transformation. Wild-type, non-transformed Arabidopsis (c.v. Columbia) served as a glyphosate sensitive control.
T2Arabidopsis Data. The second generation plants (T2) of selected T1 Arabidopsis events which contained low copy numbers of the dgt-28 transgene were further characterized for glyphosate tolerance. Glyphosate was applied as described previously. The response of the plants is presented in terms of % visual injury 2 weeks after treatment (WAT). […] An arithmetic mean and standard deviation are presented for each construct used for Arabidopsis transformation. The range in individual response is also indicated in the last column for each rate and transformation. Wild-type, non-transformed Arabidopsis (cv. Columbia) served as a glyphosate sensitive control. In the T2 generation hemizygous and homozygous plants were available for testing for each event and therefore were included for each rate of glyphosate tested. Hemizygous plants contain two different alleles at a locus as compared to homozygous plants which contain the same two alleles at a locus. Variability of response to glyphosate is expected in the T2 generation as a result of the difference in gene dosage for hemizygous as compared to homozygous plants. The variability in response to glyphosate is reflected in the standard deviation and range of response.
T3 Arabidopsis Data. The third generation plants (T3) of selected T2 Arabidopsis events which contained low copy numbers of the dgt-28 transgene were further characterized for glyphosate tolerance. […] Glyphosate was applied as described previously. The response of the plants is presented in terms of % visual injury 2 weeks after treatment (WAT). […] An arithmetic mean and standard deviation are presented for each construct used for Arabidopsis transformation. The range in individual response is also indicated in the last column for each rate and transformation. Wild-type, non-transformed Arabidopsis (cv. Columbia) served as a glyphosate-sensitive control.

Arabidopsis [2] = assay: Heritability progeny test of T1 families (T2 plants) with glufosinate, Arabidopsis; format: in vivo, Arabidopsis thaliana; settings: progeny test of 100 T2 plants, glufosinate 200 g ae/ha
Description: Heritability. Confirmed transgenic T1 Arabidopsis events were self-pollinated to produce T2 seed. These seed were progeny tested by applying Ignite™ herbicide containing glufosinate (200 g ae/ha) to 100 random T2 siblings. […] The T1 families (T2 plants) segregated in the anticipated 3 Resistant: 1 Sensitive model for a dominantly inherited single locus with Mendelian inheritance as determined by Chi square analysis (P>0.05). […] Seed were collected from 5 to 15 T2 individuals (T3 seed). Twenty-five T3 siblings from each of 3-4 randomly-selected T2 families were progeny tested as previously described.

[3] = Table 8, T1 Arabidopsis, 105 g ae/ha glyphosate
[4] = Table 8, T1 Arabidopsis, 420 g ae/ha glyphosate
[5] = Table 8, T1 Arabidopsis, 1680 g ae/ha glyphosate
[6] = Table 8, T1 Arabidopsis, 3360 g ae/ha glyphosate
[7] = Table 10, T1 Arabidopsis, 1,680 g ae/ha glyphosate
[8] = Table 12, T2 Arabidopsis, 1 copy, 420 g ae/ha glyphosate
[9] = Table 12, T2 Arabidopsis, 1 copy, 840 g ae/ha glyphosate
[10] = Table 12, T2 Arabidopsis, 1 copy, 1680 g ae/ha glyphosate
[11] = Table 12, T2 Arabidopsis, 1 copy, 3360 g ae/ha glyphosate

B1: pDAB105530: TraP5 v2 - dgt-28 v5: binary construct TraP5 v2: dgt-28 v5 (SEQ ID NO:33) (nucleic acid)
DNA: ATGCAACTCCTGAATCAGAGGCAAGCCCTGCGTCTTGGTCGTTCATCTGCTTCAAAGAACCAGCAAGTTGCTCCACTGGCCTCTAGGCCTGCTTCTTCCTTGAGCGTCAGCGCATCCAGCGTCGCACCTGCACCTGCTTGCTCAGCTCCTGCTGGAGCTGGAAGGCGTGCTGTTGTCGTGAGAGCAGCAAGAGGGATGCCAGCCTTGTCTTTACCTGGATCAAAGAGTATCACAGCTAGGGCACTCTTTCTTGCTGCTGCTGCTGATGGGGTTACTACTTTGGTGAGGCCATTGAGAAGTGACGACACAGAAGGATTCGCTGAGGGGTTAGTTCGTTTAGGCTATCGTGTAGGGAGGACACCCGATACTTGGCAAGTCGATGGCAGACCACAAGGACCAGCAGTGGCTGAGGCTGACGTCTACTGTAGAGACGGAGCAACCACCGCTAGATTCTTGCCAACCTTAGCAGCTGCTGGTCACGGAACATACAGATTTGATGCTTCACCACAGATGAGGAGACGTCCTCTTTTGCCCTTAAGCAGAGCCTTGAGGGATTTGGGTGTCGATCTTAGACACGAAGAAGCTGAAGGTCATCACCCTCTGACTGTCCGTGCTGCTGGGGTTGAAGGAGGAGAGGTTACTTTGGATGCTGGTCAGTCAAGTCAGTATCTCACTGCCTTGTTGCTCCTTGGTCCCCTTACAAGACAAGGACTGAGGATAAGGGTTACTGATTTGGTGTCAGCACCATACGTGGAGATTACGCTTGCAATGATGAGGGCTTTCGGAGTTGAAGTGGCAAGGGAGGGAGATGTGTTCGTTGTTCCACCTGGTGGATATCGTGCAACTACGTATGCTATAGAACCCGACGCAAGTACTGCTTCTTACTTCTTCGCAGCTGCTGCTTTGACTCCTGGAGCTGAAGTGACTGTACCTGGGTTAGGCACGGGAGCACTTCAAGGAGATTTGGGATTTGTAGATGTCTTAAGGAGAATGGGAGCCGAGGTGTCCGTAGGAGCTGATGCAACCACTGTTAGAGGAACTGGTGAATTGCGTGGCCTTACAGCCAACATGAGAGACATAAGTGATACGATGCCGACCCTCGCTGCAATAGCACCCTTTGCTAGTGCTCCAGTTAGAATCGAGGATGTTGCCAACACTCGTGTCAAAGAATGTGACAGACTTGAGGCTTGTGCAGAGAACCTTAGGAGGTTGGGAGTAAGGGTTGCAACGGGTCCGGACTGGATTGAGATACACCCTGGTCCAGCTACTGGTGCTCAAGTCACAAGCTATGGTGATCACAGAATTGTGATGTCATTTGCAGTGACTGGACTTCGTGTGCCTGGGATCAGCTTCGACGACCCTGGCTGTGTTCGTAAGACTTTTCCTGGGTTTCACGAGGCTTTCGCAGAATTGAGGCGTGGCATTGGGAGCTGA
modifications: In-frame fusion of dgt-28 v5 and TraP5 v2
Glyphosate tolerance (Arabidopsis [1]; T2 Arabidopsis, versus dgt-28 constructs with other TraP transit peptides): did not provide robust tolerance to glyphosate
% Injury Ave (Arabidopsis [1]; [3]): 39.3%
% Injury Range (%) (Arabidopsis [1]; [3]): 8-100%
No. plants with 20-40% injury (Arabidopsis [1]; [3]): 2
No. plants with <20% injury (Arabidopsis [1]; [3]): 2
No. plants with >40% injury (Arabidopsis [1]; [3]): 2
% Injury Ave (Arabidopsis [1]; [4]): 33.0%
% Injury Range (%) (Arabidopsis [1]; [4]): 8-85%
No. plants with 20-40% injury (Arabidopsis [1]; [4]): 4
No. plants with <20% injury (Arabidopsis [1]; [4]): 1
No. plants with >40% injury (Arabidopsis [1]; [4]): 1
% Injury Ave (Arabidopsis [1]; [5]): 47.5%
% Injury Range (%) (Arabidopsis [1]; [5]): 25-85%
No. plants with 20-40% injury (Arabidopsis [1]; [5]): 4
No. plants with <20% injury (Arabidopsis [1]; [5]): 0
No. plants with >40% injury (Arabidopsis [1]; [5]): 2
% Injury Ave (Arabidopsis [1]; [6]): 76.7%
% Injury Range (%) (Arabidopsis [1]; [6]): 50-85%
No. plants with 20-40% injury (Arabidopsis [1]; [6]): 0
No. plants with <20% injury (Arabidopsis [1]; [6]): 0
No. plants with >40% injury (Arabidopsis [1]; [6]): 6
% Injury Ave (Arabidopsis [1]; [7]): 47.5%
% Injury Range (%) (Arabidopsis [1]; [7]): 25-85%
No. plants with 20-40% injury (Arabidopsis [1]; [7]): 4
No. plants with <20% injury (Arabidopsis [1]; [7]): 0
No. plants with >40% injury (Arabidopsis [1]; [7]): 2
% Injury Ave (Arabidopsis [1]; [8]): 75.0%
% Injury Range (%) (Arabidopsis [1]; [8]): 50-90%
No. plants with 20-40% injury (Arabidopsis [1]; [8]): 0
No. plants with <20% injury (Arabidopsis [1]; [8]): 0
No. plants with >40% injury (Arabidopsis [1]; [8]): 4
% Injury Ave (Arabidopsis [1]; [9]): 80.0%
% Injury Range (%) (Arabidopsis [1]; [9]): 50-90%
No. plants with 20-40% injury (Arabidopsis [1]; [9]): 0
No. plants with <20% injury (Arabidopsis [1]; [9]): 0
No. plants with >40% injury (Arabidopsis [1]; [9]): 4
% Injury Ave (Arabidopsis [1]; [10]): 75.0%
% Injury Range (%) (Arabidopsis [1]; [10]): 60-85%
No. plants with 20-40% injury (Arabidopsis [1]; [10]): 0
No. plants with <20% injury (Arabidopsis [1]; [10]): 0
No. plants with >40% injury (Arabidopsis [1]; [10]): 4
% Injury Ave (Arabidopsis [1]; [11]): 76.3%
% Injury Range (%) (Arabidopsis [1]; [11]): 70-80%
No. plants with 20-40% injury (Arabidopsis [1]; [11]): 0
No. plants with <20% injury (Arabidopsis [1]; [11]): 0
No. plants with >40% injury (Arabidopsis [1]; [11]): 4
T1 Families Tested Segregating at 1 Locus (%) (Arabidopsis [2]): 100%
